Test results reported in publication doi:10.1101/430827 (bioRxiv, 2018).
One block for each molecule: values may come before it.

Assays:
[1] = target: M2345/WT IRSp53 heterodimer (UniProt Q9UQB8); assay: co-IP
[2] = target: WT/M2345 IRSp53 heterodimer (UniProt Q9UQB8); assay: co-IP
[3] = target: 2xFLAG-Eps8 (human, UniProt Q12929 1-822); assay: other fluorescence titration
[4] = target: the molecule itself; assay: crystal structure
[5] = target: FLAG-Eps8/pIRSp53 complex (human | , UniProt Q12929 1-822; Q9UQB8-4 1-521, phosphorylated (pIRSp53, as m4)); assay: pull-down
Chain of FLAG-Eps8/pIRSp53 complex (Q12929 whole entry, one chain of several): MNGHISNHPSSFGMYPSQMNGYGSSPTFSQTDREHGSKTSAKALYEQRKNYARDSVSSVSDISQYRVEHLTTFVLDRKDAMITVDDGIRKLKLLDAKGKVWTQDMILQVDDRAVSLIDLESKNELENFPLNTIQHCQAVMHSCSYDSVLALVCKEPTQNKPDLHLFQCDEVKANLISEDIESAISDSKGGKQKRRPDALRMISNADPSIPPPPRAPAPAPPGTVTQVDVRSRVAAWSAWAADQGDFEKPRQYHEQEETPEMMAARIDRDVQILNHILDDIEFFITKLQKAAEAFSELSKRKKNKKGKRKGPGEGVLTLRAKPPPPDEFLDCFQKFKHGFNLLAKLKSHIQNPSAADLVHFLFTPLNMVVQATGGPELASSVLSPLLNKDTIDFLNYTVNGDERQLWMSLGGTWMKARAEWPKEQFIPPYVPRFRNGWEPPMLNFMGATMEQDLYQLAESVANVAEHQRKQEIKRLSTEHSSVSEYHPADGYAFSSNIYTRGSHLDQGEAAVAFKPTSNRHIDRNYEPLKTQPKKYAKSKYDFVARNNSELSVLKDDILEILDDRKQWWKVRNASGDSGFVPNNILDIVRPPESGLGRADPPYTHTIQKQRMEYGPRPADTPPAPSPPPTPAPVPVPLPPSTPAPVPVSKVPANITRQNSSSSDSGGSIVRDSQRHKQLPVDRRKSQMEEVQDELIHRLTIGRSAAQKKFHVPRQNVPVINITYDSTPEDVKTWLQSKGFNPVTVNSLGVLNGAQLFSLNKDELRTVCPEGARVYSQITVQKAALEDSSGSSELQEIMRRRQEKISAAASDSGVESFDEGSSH

Chain of 2xFLAG-Eps8 (Q12929 whole entry): as the sequence (Q12929 whole entry, one chain of several) above

percent of the amount that coimmunoprecipitates with WT/WT IRSp53 [1]: 50%
percent of the amount that coimmunoprecipitates with WT/WT IRSp53 [2]: 50%
Molecule: endogenous 14-3-3 (all isoforms included) (from UniProt P27348 1-245) (natural protein)

Kd [3]: 42 nM
B1: pIRSp53FS (natural protein, UniProt Q9UQB8-4 1-521, looked up)
chain: MSLSRSEEMHRLTENVYKTIMEQFNPSLRNFIAMGKNYEKALAGVTYAAKGYFDALVKMGELASESQGSKELGDVLFQMAEVHRQIQNQLEEMLKSFHNELLTQLEQKVELDSRYLSAALKKYQTEQRSKGDALDKCQAELKKLRKKSQGSKNPQKYSDKELQYIDAISNKQGELENYVSDGYKTALTEERRRFCFLVEKQCAVAKNSAAYHSKGKELLAQKLPLWQQACADPSKIPERAVQLMQQVASNGATLPSALSASKSNLVISDPIPGAKPLPVPPELAPFVGRMSAQESTPIMNGVTGPDGEDYSPWADRKAAQPKSLSPPQSQSKLSDSYSNTLPVRKSVTPKNSYATTENKTLPRSSSMAAGLERNGRMRVKAIFSHAAGDNSTLLSFKEGDLITLLVPEARDGWHYGESEKTKMRGWFPFSYTRVLDSDGSDRLHMSLQQGKSSSTGNLLDKDDLAIPPPDYGAASRAFPAQTASGFKQRPYSVAVPAFSQGLDDYGARSMSSGSGTLVCTV
modifications: natively phosphorylated in HEK293T cells; C230 and C519 labeled with the donor/acceptor pair fluorescein maleimide/rhodamine maleimide

binding result [5]: binds
B2: 14-3-3θ (natural protein, human)
chain: MEKTELIQKAKLAEQAERYDDMATCMKAVTEQGAELSNEERNLLSVAYKNVVGGRRSAWRVISSIEQKTDTSDKKLQLIKDYREKVESELRSICTTVLELLDKYLIANATNPESKVFYLKMKGDYFRYLAEVACGDDRKQTIDNSQGAYQEAFDISKKEMQPTHPIRLGLALNFSVFYYEILNNPELACTLAKTAFDEAIAELDTLNEDSYKDSTLIMQLLRDNLTLWTSDSAGEECDAAEGAEN
binding result [4]: binds
